The results in this text go back to patent publication US7098025B1, “Human peroxisome proliferator activated receptor gamma (pparγ) gene regulatory sequences and uses therefor” (Ligand Pharmaceuticals Incorporated, priority 1997, dated 2006).

The test system of one assay is human PPARγ1 promoter. In words: pGL3γ1p3000 luciferase reporter cotransfection. The format is cell-based. As to conditions: expression vector cotransfected. From the text: (§1) To assess whether ADD-1 regulates the expression of the hPPARγ3 mRNA, we cotransfected either an expression plasmid coding for ADD-1 together with the pGL3γ3p800 luciferase reporter vector. When Hep G2 cells were cotransfected with the ADD-1 expression vector, the luciferase activity was increased at least 4-fold relative to the basal activity of the hPPARγ3 promoter.
To isolate the PPARγ1 promoter, an 8-kb EcoRI fragment, which hybridized with the oligonucleotide LF-2 (corresponding to the 5′-UTR of γ1), was cloned into pBluescript. […] To test for promoter activity, a SacI/XhoI digestion of this clone containing the 3-kb promoter was inserted in the same sites of pGL3, resulting in the final vector pGL3 γ1p3000. The pSG5-haPPARγ (39) and pMSV-C/EBPβ (10) expression vectors were described elsewhere. Transfections were carried out in 60-mm plates using standard calcium phosphate precipitation techniques (for 3T3-L1, CV-1, and COS cells) (22). Luciferase and […] assays were carried out exactly as described previously (22).
(§2) Site-directed mutagenesis of the E-box in the PPARγ3 promoter was performed by splicing overlapping ends polymerase chain reaction (Ho, et al., Gene 77:51–59 (1989)), using the oligo pairs LF-106/LF-60 and LF-107/LF-68, to generate the plasmid pGL3γ3p800-E-boxmut. […]
For orientation: Reporter assays use an easily measured gene product as a stand-in for the process of interest.

Another assay has as its system human PPARγ2 promoter. In words: pGL3γ2p1000 luciferase reporter cotransfection. The format is cell-based. To be noted: expression vector cotransfected.
Source text: as §1
A 1-kb fragment of PAC clone 8856 was isolated by PCR using the oligonucleotides LF-35 (binding antisense in the PPARγ2 5′-UTR) and the oligonucleotide LF-58 (binding sense at position −1000 of the PPARγ2), was sequenced, and was inserted into EcoRV site of pBluescript (Stratagene, La Jolla, Calif.). After digestion of plasmid pBS γ2p1000 with SmaI and KpnI, the insert was cloned into the reporter vector pGL3 (Promega), creating the expression vector pGL3γ2p1000.
as §2

The test system of assay [1] is PPARγ mRNA. In words: RNase protection assay of endogenous PPARγ mRNA in electroporated Hep G2 cells. The format is cell-based, human. As to conditions: Hep G2 cells electroporated with expression vector; 48 hr after transfection. The text has this:
To investigate whether ADD-1/SREBP-1 expression was sufficient to regulate the expression of the endogeneous PPARγ3 mRNA, Hep G2 cells were electroporated with vectors expressing either SREBP-1a (Yokoyama et al., Cell 75:187–197 (1993)) or ADD-1 (Tontonoz et al., Mol. Cell. Biol. 13:4753–4759 (1993)). RNA was extracted 48 hr after transfection and analysed by RNase protection assay for the presence of PPARγ mRNA.
The absolute mRNA concentration of the differentially spliced PPARγ variants was measured by RNase protection assay exactly as described (Lemberger et al., J. Biol. Chem. 271:1764–1769 (1995)). The full lenght PPARγ2 coding region plus 33 bp of the 5′ UTR was amplified from human adipose tissue RNA by RT-PCR with the primer pair LF-3/LF-36 and was inserted in the inverted orientation (3′ to 5′ in front of the T7 promoter) into the EcoRI site of the expression vector pSG5 (Stratagene, La Jolla, Calif.). The resulting plasmid pSG5-hPPARγ2-inv was digested with EcoRV and religated, yielding the vector pSG5-hPPARγ2-RPA, which was used as a template for the synthesis of the anti-sense RNA probe, to measure the relative amounts of PPARγ2 relative to PPARγ1 and 3 mRNA. […]

For assay [2], the system named is PPARγ mRNA. The experiment in a line: RNase protection assay of PPARγ mRNA in retrovirally infected 3T3-L1 cells. Format: cell-based, mouse. To be noted: 3T3-L1 preadipocytes and adipocytes; retroviral ectopic expression. As to the method: To study the effects of ADD-1 on PPARγ expression in more detail, either an empty retroviral vector pBabe or the same vector encoding for full length ADD-1 or the superactive ADD-1-403 form were introduced into 3T3-L1 cells via retroviral infection. […] Infected cells were then cultured to confluence and consecutively treated with differentiation medium. Total RNA was isolated at confluence (preadipocytes) and at day 6 after confluence (adipocytes) from the cells expressing either the empty pBabe vector or the same vector encoding for ADD-1 or ADD-1-403, a truncated form of ADD-1, equivalent to the proteolytically activated protein, which lacks the membrane anchoring domain. […] The effect of retroviral infection was more pronounced in 3T3-L1 adipocytes relative to preadipocytes.
Control cells received vehicle only.
The absolute mRNA concentration of the differentially spliced PPARγ variants was measured by RNase protection assay exactly as described (Lemberger et al., J. Biol. Chem. 271:1764–1769 (1995)). The full lenght PPARγ2 coding region plus 33 bp of the 5′ UTR was amplified from human adipose tissue RNA by RT-PCR with the primer pair LF-3/LF-36 and was inserted in the inverted orientation (3′ to 5′ in front of the T7 promoter) into the EcoRI site of the expression vector pSG5 (Stratagene, La Jolla, Calif.). […]

In a further assay the test system is hPPARγ3 promoter. In words: pGL3γ3p800 luciferase reporter cotransfection in Hep G2 cells. Format: cell-based, human. As to conditions: E-box mutated.
Source text: as §1
A 800 bp fragment of the PAC clone 8856 was isolated by PCR using the amplimers LF-60 (binding to the antisense strand in exon A2) and LF-68 (binding sense at position −800 of the PPARγ3 promoter). This PCR fragment was sequenced, inserted into the EcoRV site of pBluescript SK+ (Stratagene, La Jolla, USA), and after SpeI and KpnI restriction subcloned into pGL3 (Promega, Madison, USA), creating the reporter vector pGL3γ3p800.
as §2

B1: ADD-1: basic helix-loop-helix leucine zipper transcription factor, expressed from a cotransfected, electroporated or retroviral vector (protein, UniProt P56720 1-1134, looked up)
Sterol regulatory …: MDELPFGEAALEQALAEVCEMDAALLTDIEDMLQLINNQDSDFPGLFDAPYAGGETGDTGPSSPGASSPESFSSPASLGSSLEAFLGGPKVTPAPLSPPPSAPTAVKMYPSVPPFSPGPGIKEEPVPLTILQPPAPQPSPGTLLPPSFPPPPVQLSPAPVLGYSSLPSGFSGTLPGNTQQTPSSLPLGSTPGISPTPLHTQVQSSAAQQPPPASAAPRMSTVASQIQQVPVVLQPHFIKADSLLLTAVKTDTGATMKTAGINTLAPGTAVQAGPLQTLVSGGTILATVPLVVDTDKLPIHRLAAGGKALGSAQSRGEKRTAHNAIEKRYRSSINDKIVELKDLVVGTEAKLNKSAVLRKAIDYIRFLQHSNQKLKQENLTLRSAHKSKSLKDLVSACGSGGGTDVSMEGMKPEVVETLTPPPSDAGSPSQSSPLSLGSRGSSSGGSDSEPDSPAFEDNQVKAQRLPSHSRGMLDRSRLALCVLVFLCLTCNPLASLFGWGILTPSDASGVHRSSGRSMLEAESRDGSNWTQWLLPPLVWLANGLLVLACLALLFVYGEPVTRPHSGPAVHFWRHRKQADLDLARGDFAQAAQQLWLALQALGRPLPTSNLDLACSLLWNLVRHLLQRLWVGRWLAGQAGGLQRDYRLRKDARASARDAAVVYHKLHQLHAMGKYTGGHLVASNLALSALNLAECAGDAISMATLAEIYVAAALRVKTSLPRALHFLTRFFLSSARQACLAQSGAVPLAMQWLCHPVGHRFFVDGDWAVHGAPQESLYSVAGNPVDPLAQVTRLFCEHLLERALNCIAQPSPGAADGDREFSDALGYLQLLNSCSDAVGAPACSFSVSSSMATTTGTDPVAKWWASLTAVVIHWLRRDEEAAERLYPLVEHIPQVLQETERPLPRAALYSFKAARALLDHRKVESSPASLAICEKASGYLRDSLASTSTASSIDKAMQLLLCDLLLVARTSLWRRQQSAASAQGAHGTSNGPQASALELRGFQHDLSSLRRLAQSFRPAMRRVFLHEATARLMAGASPARTHQLLDRSLRRRAGSSGKGGAAAELEPRPTWREHTEALLLASCYLPPAFLSAPGQRVSMLAEAARTVEKLGDHRLLLDCQQMLLRLGGGTTVTSS
B1: the “activity of pGL3γ1p3000 reporter construct” value in the assay with human PPARγ1 promoter is recorded as “unaffected”. The “activity of pGL3γ2p1000 reporter construct” value in the assay on human PPARγ2 promoter is listed as “unaffected”. In the assay on PPARγ mRNA [1], the “PPARγ1 mRNA increase” value is on record as “approximately 3 fold”. In addition, in the assay on PPARγ mRNA [2], the “expression of PPARγ mRNA” value is on record as “induced”. Moreover, in the assay with hPPARγ3 promoter, the “stimulation of mutated pGL3γ3p800-E-boxmut reporter vector” value is on record as “unable to stimulate”.
